Results published in PMC12348683.

Target: T1, KwaB (O55) (Escherichia coli O55, UniProt P0DW46 1-315)
T1 sequence: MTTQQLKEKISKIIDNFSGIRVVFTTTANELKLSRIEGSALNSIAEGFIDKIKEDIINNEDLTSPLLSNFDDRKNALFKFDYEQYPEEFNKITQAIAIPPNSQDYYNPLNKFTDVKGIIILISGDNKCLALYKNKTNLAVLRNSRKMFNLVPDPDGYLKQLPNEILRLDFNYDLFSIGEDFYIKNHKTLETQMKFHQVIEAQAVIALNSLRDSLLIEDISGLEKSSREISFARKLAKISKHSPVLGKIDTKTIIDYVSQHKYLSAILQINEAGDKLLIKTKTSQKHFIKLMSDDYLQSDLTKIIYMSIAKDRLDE
Assay: EMSA

B1: 72-bp dsDNA (dsDNA)
DNA 1: TGGTTTTTATATGTTTTGTTATGTATTGTTTATTTTCCCTTTAATTTTAGGATATGAAAACAAGAATTTATC
DNA 2: GATAAATTCTTGTTTTCATATCCTAAAATTAAAGGGAAAATAAACAATACATAACAAAACATATAAAAACCA
binding result: binds
